Data on 18 molecules can be found in patent publication US20220267464A1 (Hoffmann-La Roche, published 2022).

Sequences and labels used below:
B1: P1AE3107 (antibody, IgG1, V domains shown)
VH: QVQLVQSGAEVKKPGASVKVSCKASGFNIKDSYMHWVRQAPGQGLEWMGWIDPENGDTEYAPKFQGRVTMTTDTSISTAYMELSRLRSDDTAVYYCNEGTPTGPYYFDYWGQGTLVTVSS
VL: EIQMTQSPSSLSASVGDRVTITCRASSSVPYMHWYQQKPGKAPKLLIYSTSNLASGVPSRFSGSGSGTDFTLTISSVQPEDFATYYCQQRSSYPLTFGGGTKLEIK
notes: huIgG1 P329G LALA; also called MFE-H24 / MFE-L27; huMFE23-L27-H24
B2: P1AE3090 (antibody, IgG1, V domains shown)
VH: QVQLVQSGAEVKKPGSSVKVSCKASGFNIKDSYMHWVRQAPGQGLEWMGWIDPENGDTEYAPKFQGRVTITTDESTSTAYMELSSLRSEDTAVYYCNEGTPTGPYYFDYWGQGTLVTVSS
VL: EIQMTQSPSSLSASVGDRVTITCRASSSVPYMHWLQQKPGKAPKLLIYSTSSLQSGVPSRFSGSGSGTDFTLTISSVQPEDFATYYCQQRSSYPLTFGGGTKLEIK
notes: huIgG1 P329G LALA; also called MFE-H29 / MFE-L29
B3: P1AE3095 (antibody, IgG1, V domains shown)
VH: QVQLVQSGAEVKKPGASVKVSCKASGFNIKDSYMHWVRQAPGQGLEWMGWIDPENGDTEYAPKFQGRVTMTTDTSISTAYMELSRLRSDDTAVYYCNEGTPTGPYYFDYWGQGTLVTVSS
VL: EIQMTQSPSSLSASVGDRVTITCRASSSVPYMHWLQQKPGKAPKLLIYSTSSLQSGVPSRFSGSGSGTDFTLTISSVQPEDFATYYCQQRSSYPLTFGGGTKLEIK
notes: huIgG1 P329G LALA; also called MFE-H24 / MFE-L29
B4: P1AE3114 (antibody, IgG1, V domains shown)
VH: QVQLVQSGAEVKKPGSSVKVSCKASGFNIKDSYMHWVRQAPGQGLEWMGWIDPENGDTEYAPKFQGRVTITTDESTSTAYMELSSLRSEDTAVYYCNEGTPTGPYYFDYWGQGTLVTVSS
VL: EIQMTQSPSSLSASVGDRVTITCRASSSVSYMHWYQQKPGKAPKLLIYSTSNLASGVPSRFSGSGSGTDFTLTISSLQPEDFATYYCQQRSSYPLTFGGGTKLEIK
notes: huIgG1 P329G LALA; also called MFE-H29 / MFE-L25
B5: P1AE3099 (antibody, IgG1, V domains shown)
VH: QVQLVQSGAEVKKPGASVKVSCKASGFNIKDSYMHWVRQAPGQGLEWMGWIDPENGGTNYAQKFQGRVTMTTDTSISTAYMELSRLRSDDTAVYYCNEGTPTGPYYFDYWGQGTLVTVSS
VL: EIQMTQSPSSLSASVGDRVTITCRASSSVPYMHWLQQKPGKAPKLLIYSTSNLASGVPSRFSGSGSGTDFTLTISSVQPEDFATYYCQQRSSYPLTFGGGTKLEIK
notes: huIgG1 P329G LALA; also called MFE-H26 / MFE-L28
B6: P1AE3102 (antibody, IgG1, V domains shown)
VH: QVQLVQSGAEVKKPGSSVKVSCKASGFNIKDSYMHWVRQAPGQGLEWMGWIDPENGDTEYAPKFQGRVTITTDESTSTAYMELSSLRSEDTAVYYCNEGTPTGPYYFDYWGQGTLVTVSS
VL: EIQMTQSPSSLSASVGDRVTITCRASSSVPYMHWYQQKPGKAPKLLIYSTSNLASGVPSRFSGSGSGTDFTLTISSVQPEDFATYYCQQRSSYPLTFGGGTKLEIK
notes: huIgG1 P329G LALA; also called MFE-H29 / MFE-L27; huMFE23-L27-H29
B7: P1AE3097 (antibody, IgG1, V domains shown)
VH: QVQLVQSGAEVKKPGASVKVSCKASGFNIKDSYMHWVRQAPGQGLEWMGWIDPENGDTEYAPKFQGRVTMTRDTSISTAYMELSRLRSDDTAVYYCNEGTPTGPYYFDYWGQGTLVTVSS
VL: EIQMTQSPSSLSASVGDRVTITCRASSSVPYMHWLQQKPGKAPKLLIYSTSNLASGVPSRFSGSGSGTDFTLTISSVQPEDFATYYCQQRSSYPLTFGGGTKLEIK
notes: huIgG1 P329G LALA; also called MFE-H28 / MFE-L28; huMFE23-L28-H28
B8: P1AE3105 (antibody, IgG1, V domains shown)
VH: QVQLVQSGAEVKKPGASVKVSCKASGFNIKDSYMHWVRQAPGQGLEWMGWIDPENGGTNYAQKFQGRVTMTTDTSISTAYMELSRLRSDDTAVYYCNEGTPTGPYYFDYWGQGTLVTVSS
VL: EIQMTQSPSSLSASVGDRVTITCRASSSVPYMHWYQQKPGKAPKLLIYSTSNLASGVPSRFSGSGSGTDFTLTISSVQPEDFATYYCQQRSSYPLTFGGGTKLEIK
notes: huIgG1 P329G LALA; also called MFE-H26 / MFE-L27; huMFE23-L27-H26
B9: P1AE3093 (antibody, IgG1, V domains shown)
VH: QVQLVQSGAEVKKPGASVKVSCKASGFNIKDSYMHWVRQAPGQGLEWMGWIDPENGGTNYAQKFQGRVTMTTDTSISTAYMELSRLRSDDTAVYYCNEGTPTGPYYFDYWGQGTLVTVSS
VL: EIQMTQSPSSLSASVGDRVTITCRASSSVPYMHWLQQKPGKAPKLLIYSTSSLQSGVPSRFSGSGSGTDFTLTISSVQPEDFATYYCQQRSSYPLTFGGGTKLEIK
notes: huIgG1 P329G LALA; also called MFE-H26 / MFE-L29
B10: P1AE3115 (antibody, IgG1, V domains shown)
VH: QVQLVQSGAEVKKPGASVKVSCKASGFNIKDSYMHWVRQAPGQGLEWMGWIDPENGDTEYAPKFQGRVTMTRDTSISTAYMELSRLRSDDTAVYYCNEGTPTGPYYFDYWGQGTLVTVSS
VL: EIQMTQSPSSLSASVGDRVTITCRASSSVSYMHWYQQKPGKAPKLLIYSTSNLASGVPSRFSGSGSGTDFTLTISSLQPEDFATYYCQQRSSYPLTFGGGTKLEIK
notes: huIgG1 P329G LALA; also called MFE-H28 / MFE-L25
B11: P1AE3091 (antibody, IgG1, V domains shown)
VH: QVQLVQSGAEVKKPGASVKVSCKASGFNIKDSYMHWVRQAPGQGLEWMGWIDPENGDTEYAPKFQGRVTMTRDTSISTAYMELSRLRSDDTAVYYCNEGTPTGPYYFDYWGQGTLVTVSS
VL: EIQMTQSPSSLSASVGDRVTITCRASSSVPYMHWLQQKPGKAPKLLIYSTSSLQSGVPSRFSGSGSGTDFTLTISSVQPEDFATYYCQQRSSYPLTFGGGTKLEIK
notes: huIgG1 P329G LALA; also called MFE-H28 / MFE-L29
B12: P1AE3094 (antibody, IgG1, V domains shown)
VH: QVQLVQSGAEVKKPGASVKVSCKASGYTFKDSYMHWVRQAPGQGLEWMGWIDPENGDTEYAPKFQGRVTMTTDTSISTAYMELSRLRSDDTAVYYCNEGTPTGPYYFDYWGQGTLVTVSS
VL: EIQMTQSPSSLSASVGDRVTITCRASSSVPYMHWLQQKPGKAPKLLIYSTSSLQSGVPSRFSGSGSGTDFTLTISSVQPEDFATYYCQQRSSYPLTFGGGTKLEIK
notes: huIgG1 P329G LALA; also called MFE-H25 / MFE-L29
B13: P1AE3120 (antibody, IgG1, V domains shown)
VH: QVQLVQSGAEVKKPGSSVKVSCKASGFNIKDSYMHWVRQAPGQGLEWMGWIDPENGDTEYAPKFQGRVTITTDESTSTAYMELSSLRSEDTAVYYCNEGTPTGPYYFDYWGQGTLVTVSS
VL: DIQMTQSPSSLSASVGDRVTITCRASSSVSYMHWYQQKPGKAPKLLIYSTSNLASGVPSRFSGSGSGTDFTLTISSLQPEDFATYYCQQRSSYPLTFGGGTKLEIK
notes: huIgG1 P329G LALA; also called MFE-H29 / MFE-L24
B14: P1AE3100 (antibody, IgG1, V domains shown)
VH: QVQLVQSGAEVKKPGASVKVSCKASGYTFKDSYMHWVRQAPGQGLEWMGWIDPENGDTEYAPKFQGRVTMTTDTSISTAYMELSRLRSDDTAVYYCNEGTPTGPYYFDYWGQGTLVTVSS
VL: EIQMTQSPSSLSASVGDRVTITCRASSSVPYMHWLQQKPGKAPKLLIYSTSNLASGVPSRFSGSGSGTDFTLTISSVQPEDFATYYCQQRSSYPLTFGGGTKLEIK
notes: huIgG1 P329G LALA; also called MFE-H25 / MFE-L28; huMFE23-L28-H25
B15: P1AE3096 (antibody, IgG1, V domains shown)
VH: QVQLVQSGAEVKKPGSSVKVSCKASGFNIKDSYMHWVRQAPGQGLEWMGWIDPENGDTEYAPKFQGRVTITTDESTSTAYMELSSLRSEDTAVYYCNEGTPTGPYYFDYWGQGTLVTVSS
VL: EIQMTQSPSSLSASVGDRVTITCRASSSVPYMHWLQQKPGKAPKLLIYSTSNLASGVPSRFSGSGSGTDFTLTISSVQPEDFATYYCQQRSSYPLTFGGGTKLEIK
notes: huIgG1 P329G LALA; also called MFE-H29 / MFE-L28
B16: P1AE3119 (antibody, IgG1, V domains shown)
VH: QVQLVQSGAEVKKPGASVKVSCKASGFNIKDSYMHWVRQAPGQGLEWMGWIDPENGDTEYAPKFQGRVTMTTDTSISTAYMELSRLRSDDTAVYYCNEGTPTGPYYFDYWGQGTLVTVSS
VL: EIQMTQSPSSLSASVGDRVTITCRASSSVSYMHWYQQKPGKAPKLLIYSTSNLASGVPSRFSGSGSGTDFTLTISSLQPEDFATYYCQQRSSYPLTFGGGTKLEIK
notes: huIgG1 P329G LALA; also called MFE-H24 / MFE-L25
B17: P1AE3103 (antibody, IgG1, V domains shown)
VH: QVQLVQSGAEVKKPGASVKVSCKASGFNIKDSYMHWVRQAPGQGLEWMGWIDPENGDTEYAPKFQGRVTMTRDTSISTAYMELSRLRSDDTAVYYCNEGTPTGPYYFDYWGQGTLVTVSS
VL: EIQMTQSPSSLSASVGDRVTITCRASSSVPYMHWYQQKPGKAPKLLIYSTSNLASGVPSRFSGSGSGTDFTLTISSVQPEDFATYYCQQRSSYPLTFGGGTKLEIK
notes: huIgG1 P329G LALA; also called MFE-H28 / MFE-L27; huMFE23-L27-H28
B18: P1AE3101 (antibody, IgG1, V domains shown)
VH: QVQLVQSGAEVKKPGASVKVSCKASGFNIKDSYMHWVRQAPGQGLEWMGWIDPENGDTEYAPKFQGRVTMTTDTSISTAYMELSRLRSDDTAVYYCNEGTPTGPYYFDYWGQGTLVTVSS
VL: EIQMTQSPSSLSASVGDRVTITCRASSSVPYMHWLQQKPGKAPKLLIYSTSNLASGVPSRFSGSGSGTDFTLTISSVQPEDFATYYCQQRSSYPLTFGGGTKLEIK
notes: huIgG1 P329G LALA; also called MFE-H24 / MFE-L28; huMFE23-L28-H24

For this assay, the target named is T1, human CEACAM5 (carcinoembryonic antigen, CEA) on cells (human, UniProt P06731 35-685).
T1 construct: endogenous on MKN45 gastric adenocarcinoma cells; full-length cDNA stably transfected in the CHO-K1 clones; also called huCEACAM5; MKN45 cells
T1 sequence: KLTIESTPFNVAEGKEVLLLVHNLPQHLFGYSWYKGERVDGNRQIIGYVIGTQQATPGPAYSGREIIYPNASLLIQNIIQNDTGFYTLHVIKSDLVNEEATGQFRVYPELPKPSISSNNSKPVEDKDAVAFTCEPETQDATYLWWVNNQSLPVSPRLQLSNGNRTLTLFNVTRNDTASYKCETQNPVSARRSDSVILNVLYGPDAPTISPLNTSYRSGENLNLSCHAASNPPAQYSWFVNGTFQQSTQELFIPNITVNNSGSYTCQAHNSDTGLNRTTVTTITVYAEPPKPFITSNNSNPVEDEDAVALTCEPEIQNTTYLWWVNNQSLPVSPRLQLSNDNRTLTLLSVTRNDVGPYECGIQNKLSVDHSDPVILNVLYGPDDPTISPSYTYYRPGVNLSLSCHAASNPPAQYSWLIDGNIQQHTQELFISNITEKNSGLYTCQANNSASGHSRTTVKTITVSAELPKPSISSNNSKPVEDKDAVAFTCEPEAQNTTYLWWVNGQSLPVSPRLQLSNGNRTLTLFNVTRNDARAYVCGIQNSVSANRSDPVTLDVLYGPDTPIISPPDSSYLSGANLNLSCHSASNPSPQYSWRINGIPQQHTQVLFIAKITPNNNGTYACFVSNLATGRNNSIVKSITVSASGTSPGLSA
The assay is described as follows: flow cytometry, MKN45 cells. Also on record: AUC: unit not given beside the values. For orientation: A flow cytometer gives signals particle by particle.
In turn, B1 showed an AUC of 91200 and an EC50 of 5.83 nM.

Take B2: the AUC came to 61800 and the EC50 turned out to be 42 nM.

As for B3, the AUC is 84900 and a half-maximal effect (EC50) was put at 11.1 nM.

The molecule B4 yielded an AUC of 12800 and an EC50 of 30.6 nM.

B5: the AUC was 95300 and the EC50 amounted to 10.2 nM.

Consider B6, for which the AUC was found to be 91500 and the EC50 was 5.41 nM.

B7 yielded an AUC of 98700 and an EC50 of 6.45 nM.

Molecule B8 registered an AUC of 55900 and an EC50 of 7.92 nM.

Turning to B9, the AUC came out at 68100 and the midpoint of the response, the EC50, lay at 16.1 nM.

For B10, the AUC came out at 10200 and the EC50 was determined as 20.7 nM.

Turning to B11, the AUC came out at 83100 and it took 14.6 nM to reach a half-maximal effect (EC50).

Consider B12, for which the AUC came to 6910 and the EC50 worked out at 47.6 nM.

For the molecule B13, the AUC was found to be 24200 and a half-maximal response (EC50) required 12.4 nM.

In turn, B14 came in with an AUC of 74100 and an EC50 of 9.89 nM.

B15 came in with an AUC of 87800 and an EC50 of 10.5 nM.

Molecule B16 gave an AUC of 10300 and an EC50 of 41.9 nM.

As for B17, the AUC amounted to 92400 and the 50% effective concentration (EC50) stood at 5.88 nM.

As for B18, the AUC stood at 104000 and the midpoint of the response, the EC50, lay at 6.58 nM.

In general, EC50 refers to the concentration at which the effect is half-maximal.
